Patent publication US20140086829A1 (BIOREC S A, published 2014)

How the values were obtained:
human GST-VEGF [1] = molecular target: T1, human GST-VEGF (human, UniProt P15692-9 27-147); test: competition ELISA on coated GST-VEGF; soluble scFv 2H1 titrated; competitor phage scFv L3
T1 construct: also called GST-VEGF humano; not shown: GST fusion partner
T1 sequence (looked up): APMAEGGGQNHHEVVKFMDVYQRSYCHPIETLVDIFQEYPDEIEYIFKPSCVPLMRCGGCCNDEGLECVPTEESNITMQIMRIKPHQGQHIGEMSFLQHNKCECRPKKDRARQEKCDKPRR

human GST-VEGF [2] = molecular target: T1, human GST-VEGF; test: competition ELISA on coated GST-VEGF; soluble scFv 2H1 titrated; competitor phage scFv 3E4
human GST-VEGF [3] = molecular target: T1, human GST-VEGF; test: competition ELISA on coated GST-VEGF; soluble scFv 2H1 titrated; competitor phage scFv 3E9
human GST-VEGF [4] = molecular target: T1, human GST-VEGF; test: competition ELISA on coated GST-VEGF; soluble scFv 2H1 titrated; competitor phage scFv 3E12
human GST-VEGF [5] = molecular target: T1, human GST-VEGF; test: competition ELISA on coated GST-VEGF; soluble scFv 2H1 titrated; competitor phage scFv L3; remark: listed apart in the source
human GST-VEGF [6] = molecular target: T1, human GST-VEGF; test: competition ELISA on coated GST-VEGF; soluble scFv 2H1 titrated; competitor phage scFv 2H1 original
human GST-VEGF [7] = molecular target: T1, human GST-VEGF; test: competition ELISA on coated GST-VEGF; soluble scFv 2H1 titrated; competitor phage scFv 2A10
human GST-VEGF [8] = molecular target: T1, human GST-VEGF; test: competition ELISA on coated GST-VEGF; soluble scFv 2H1 titrated; competitor phage scFv 2D1O
human GST-VEGF [9] = molecular target: T1, human GST-VEGF; test: competition ELISA on coated GST-VEGF; soluble scFv 2H1 titrated; competitor phage scFv 1H3
human GST-VEGF [10] = molecular target: T1, human GST-VEGF; test: competition ELISA on coated GST-VEGF; soluble scFv 2H1 titrated; competitor phage scFv L3H5
human GST-VEGF [11] = molecular target: T1, human GST-VEGF; test: competition ELISA on coated GST-VEGF; soluble scFv 2H1 titrated; competitor phage scFv 2A7
human GST-VEGF [12] = molecular target: T1, human GST-VEGF; test: competition ELISA on coated GST-VEGF; soluble scFv 2H1 titrated; competitor phage scFv 2F6
human GST-VEGF [13] = molecular target: T1, human GST-VEGF; test: competition ELISA on coated GST-VEGF; soluble scFv 2H1 titrated; competitor phage scFv 1D12
human GST-VEGF [14] = molecular target: T1, human GST-VEGF; test: competition ELISA on coated GST-VEGF; soluble scFv 2H1 titrated; competitor phage scFv 1H2
human GST-VEGF [15] = molecular target: T1, human GST-VEGF; test: competition ELISA on coated GST-VEGF; soluble scFv 2H1 titrated; competitor phage scFv 2H8
human GST-VEGF [16] = molecular target: T1, human GST-VEGF; test: competition ELISA on coated GST-VEGF; soluble scFv 2H1 titrated; competitor phage scFv L2
human GST-VEGF [17] = molecular target: T1, human GST-VEGF; test: competition ELISA on coated GST-VEGF; soluble scFv 2H1 titrated; competitor phage scFv 1H3; remark: listed apart in the source
human GST-VEGF [18] = molecular target: T1, human GST-VEGF; test: competition ELISA on coated GST-VEGF; soluble scFv 2H1 titrated; competitor phage scFv 4D8
human GST-VEGF [19] = molecular target: T1, human GST-VEGF; test: competition ELISA on coated GST-VEGF; soluble scFv 2H1 titrated; competitor phage scFv 4H3
mouse VEGF (Peprotech) = molecular target: T2, mouse VEGF (Peprotech) (mouse, UniProt Q00731-2 27-190, limits assumed); test: ELISA; antigen coated 1 µg/ml; scFv 10 µg/mL; 9E10-peroxidase
T2 construct: also called Mouse VEGF-A
T2 sequence (looked up): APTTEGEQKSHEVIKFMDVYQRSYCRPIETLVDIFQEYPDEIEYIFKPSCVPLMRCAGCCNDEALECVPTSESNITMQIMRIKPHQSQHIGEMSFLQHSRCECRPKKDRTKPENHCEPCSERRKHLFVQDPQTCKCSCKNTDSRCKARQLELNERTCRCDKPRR

[20] = molecular target: T3, isoform 165 of human VEGF-A (Peprotech) (human, UniProt P15692-4 27-191); test: as above
T3 construct: also called human VEGF165; VEGF 165

[21] = molecular target: T4, isoform 121 of human VEGF-A (Peprotech) (human, UniProt P15692-9 27-147); test: as above
T4 construct: also called human VEGF121; VEGF 121
T4 sequence (looked up): T1 sequence (looked up)

human GST-VEGF [22] = molecular target: T1, human GST-VEGF; test: competition ELISA on coated GST-VEGF; soluble scFv 2H1 titrated; competitor phage scFv 3B10
human GST-VEGF [23] = molecular target: T1, human GST-VEGF; test: competition ELISA on coated GST-VEGF; soluble scFv 2H1 titrated; competitor phage scFv 2H1 original; remark: listed apart in the source
[24] = molecular target: T3, isoform 165 of human VEGF-A (Peprotech); test: SPR, BIAcore-X; VEGF 165 coupled to CM5 chip; scFv injected; Langmuir 1:1

T3 sequence (P15692 other isoform, or with tags, fused parts or gaps limits assumed): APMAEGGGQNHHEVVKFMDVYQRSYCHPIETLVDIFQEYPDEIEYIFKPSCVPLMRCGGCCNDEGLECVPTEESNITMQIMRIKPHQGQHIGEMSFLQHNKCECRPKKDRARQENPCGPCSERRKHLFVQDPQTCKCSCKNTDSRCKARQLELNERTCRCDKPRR

B1: soluble scFv 2H1 antibody fragment (scFv, from another filing)
scFv: QQVQLVQSGAEVKKPGESLKISCKGSGYSFTSYWIGWVRQMPGKGLEWMGIIYPGDSDTRYSPSFQGQVTISADKSISTAYLQWSSLKASDTAMYYCARLVVRDTEIWGQGTMVTVSSAPQAKSSGSGSESKVDQAVVTQEPSLTVSPGGTVTLTCASSIGAVTSGNYPNWFQQRPGQPPRALIYSTSNKHSWTPARFSGSLLGGKAALTLSGAQPEDEAEYYCLLSYSGARPVFGGGTKLTVLGAAAGSEQKLISEEDLNSHHHHHH
IC50 (human GST-VEGF [1]): 358 µg/mL | IC50 (human GST-VEGF [2]): 13.5 µg/mL | IC50 (human GST-VEGF [3]): 15 µg/mL | IC50 (human GST-VEGF [4]): 18.3 µg/mL | IC50 (human GST-VEGF [5]): 350 µg/mL | IC50 (human GST-VEGF [6]): 4.89 µg/mL | IC50 (human GST-VEGF [7]): 35.8 µg/mL | IC50 (human GST-VEGF [8]): 65.7 µg/mL | IC50 (human GST-VEGF [9]): 117 µg/mL | IC50 (human GST-VEGF [10]): 940 µg/mL | IC50 (human GST-VEGF [11]): 15.8 µg/mL | IC50 (human GST-VEGF [12]): 119 µg/mL | IC50 (human GST-VEGF [13]): 58.9 µg/mL | IC50 (human GST-VEGF [14]): 124 µg/mL | IC50 (human GST-VEGF [15]): 46.6 µg/mL | IC50 (human GST-VEGF [16]): 126 µg/mL | IC50 (human GST-VEGF [17]): 110 µg/mL | IC50 (human GST-VEGF [18]): 33 µg/mL | IC50 (human GST-VEGF [19]): 12.2 µg/mL | absorbance at 492 nm (mouse VEGF (Peprotech)): 0.09 | absorbance at 492 nm [20]: 0.665 | absorbance at 492 nm [21]: 0.691 | IC50 (human GST-VEGF [22]): 7.94 µg/mL | IC50 (human GST-VEGF [23]): 5.08 µg/mL | Kd [24]: 457 nM
